target: Integrin β3 cytoplasmic tail peptide (human (from the printed UniProt ID)); assay: SPR

Kd [µM] | Substance
25 | Syk C-terminal SH2 domain with the IA segment (IA-C-SH2) (domain or fragment)
130 | Syk N-terminal SH2 domain alone (N-SH2) (domain or fragment)
8 | Syk N-terminal SH2 domain with the IA segment (N-SH2+IA) (domain or fragment)
3 | Syk tandem SH2 (tSH2) fragment, amino acids 9-264 (from UniProt P43405 9-264) (domain or fragment)

Reference: paper doi:10.1101/524447
